The results in this text go back to US20220356217A1.

The IC50 is the midpoint of a concentration-inhibition curve. Read a low IC50 as inhibition by little substance.

The target in the test is human integrin αIIbβ3 on cells (K562 cells stably expressing αIIbβ3; human platelets) (human) (UniProt P08514). Put plainly: FACS; displacement of Alexa647-labeled soluble fibrinogen from activated αIIbβ3-K562 cells.

Turning to eptifibatide (peptide), the IC50 worked out at 73.2 nM. In other words, the double-digit nanomolar range.
